Experimental findings from the Human Domainome abundance scans (Beltran et al. 2025) are described below.

± gives the uncertainty stated by the source.

B1: Homeobox protein cut-like 1, residues 548 to 629; numbered along this chain, P39880 (parent)
chain: GEEMDTAEIARQVKEQLIKHNIGQRIFGHYVLGLSQGSVSEILARPKPWNKLTVRGKEPFHKMKQFLSDEQNILALRSIQGR

Variants of B1 are the subject of the data set. Description: abundance fitness (aPCA) (normalised: wild type 0, dead -1); higher = more abundant; growth selection in yeast, the domain comes from the species named. The following applies: Homo sapiens.
In the case of GEEKDTAEIARQVKEQLIKHNIGQRIFGHYVLGLSQGSVSEILARPKPWNKLTVRGKEPFHKMKQFLSDEQNILALRSIQGR [M4K], the abundance fitness was -0.36 ± 0.039.

Take GEEFDTAEIARQVKEQLIKHNIGQRIFGHYVLGLSQGSVSEILARPKPWNKLTVRGKEPFHKMKQFLSDEQNILALRSIQGR [M4F]: the abundance fitness is -0.244 ± 0.072.

For the variant GEEDDTAEIARQVKEQLIKHNIGQRIFGHYVLGLSQGSVSEILARPKPWNKLTVRGKEPFHKMKQFLSDEQNILALRSIQGR [M4D], the abundance fitness is -0.304 ± 0.054.

GEECDTAEIARQVKEQLIKHNIGQRIFGHYVLGLSQGSVSEILARPKPWNKLTVRGKEPFHKMKQFLSDEQNILALRSIQGR [M4C]: the abundance fitness is -0.677 ± 0.1.

With GEEHDTAEIARQVKEQLIKHNIGQRIFGHYVLGLSQGSVSEILARPKPWNKLTVRGKEPFHKMKQFLSDEQNILALRSIQGR [M4H], the abundance fitness is -0.304 ± 0.069.

On to GEEEDTAEIARQVKEQLIKHNIGQRIFGHYVLGLSQGSVSEILARPKPWNKLTVRGKEPFHKMKQFLSDEQNILALRSIQGR [M4E], for which the abundance fitness was -0.191 ± 0.033.

For GEEWDTAEIARQVKEQLIKHNIGQRIFGHYVLGLSQGSVSEILARPKPWNKLTVRGKEPFHKMKQFLSDEQNILALRSIQGR [M4W], the abundance fitness was -0.23 ± 0.034.

With GEERDTAEIARQVKEQLIKHNIGQRIFGHYVLGLSQGSVSEILARPKPWNKLTVRGKEPFHKMKQFLSDEQNILALRSIQGR [M4R], the abundance fitness was -0.517 ± 0.029.

Turning to GEEPDTAEIARQVKEQLIKHNIGQRIFGHYVLGLSQGSVSEILARPKPWNKLTVRGKEPFHKMKQFLSDEQNILALRSIQGR [M4P], the abundance fitness is -0.318 ± 0.05.

As to GEESDTAEIARQVKEQLIKHNIGQRIFGHYVLGLSQGSVSEILARPKPWNKLTVRGKEPFHKMKQFLSDEQNILALRSIQGR [M4S], the abundance fitness was -0.355 ± 0.035.

For the variant GEEQDTAEIARQVKEQLIKHNIGQRIFGHYVLGLSQGSVSEILARPKPWNKLTVRGKEPFHKMKQFLSDEQNILALRSIQGR [M4Q], the abundance fitness was -0.2 ± 0.037.

Consider GEETDTAEIARQVKEQLIKHNIGQRIFGHYVLGLSQGSVSEILARPKPWNKLTVRGKEPFHKMKQFLSDEQNILALRSIQGR [M4T], for which the abundance fitness is -0.204 ± 0.038.

GEEADTAEIARQVKEQLIKHNIGQRIFGHYVLGLSQGSVSEILARPKPWNKLTVRGKEPFHKMKQFLSDEQNILALRSIQGR [M4A]: the abundance fitness is -0.432 ± 0.036.

As for GEENDTAEIARQVKEQLIKHNIGQRIFGHYVLGLSQGSVSEILARPKPWNKLTVRGKEPFHKMKQFLSDEQNILALRSIQGR [M4N], the abundance fitness was -0.331 ± 0.056.

With GEEYDTAEIARQVKEQLIKHNIGQRIFGHYVLGLSQGSVSEILARPKPWNKLTVRGKEPFHKMKQFLSDEQNILALRSIQGR [M4Y], the abundance fitness was -0.203 ± 0.066.

Consider GEDMDTAEIARQVKEQLIKHNIGQRIFGHYVLGLSQGSVSEILARPKPWNKLTVRGKEPFHKMKQFLSDEQNILALRSIQGR [E3D], for which the abundance fitness is 0.001 ± 0.042.

On to GEFMDTAEIARQVKEQLIKHNIGQRIFGHYVLGLSQGSVSEILARPKPWNKLTVRGKEPFHKMKQFLSDEQNILALRSIQGR [E3F], for which the abundance fitness came to 0.1 ± 0.063.

Take GEPMDTAEIARQVKEQLIKHNIGQRIFGHYVLGLSQGSVSEILARPKPWNKLTVRGKEPFHKMKQFLSDEQNILALRSIQGR [E3P]: the abundance fitness was -0.137 ± 0.045.

GEVMDTAEIARQVKEQLIKHNIGQRIFGHYVLGLSQGSVSEILARPKPWNKLTVRGKEPFHKMKQFLSDEQNILALRSIQGR [E3V]: the abundance fitness is -0.098 ± 0.028.

Consider GEIMDTAEIARQVKEQLIKHNIGQRIFGHYVLGLSQGSVSEILARPKPWNKLTVRGKEPFHKMKQFLSDEQNILALRSIQGR [E3I], for which the abundance fitness was -0.081 ± 0.066.

With GEMMDTAEIARQVKEQLIKHNIGQRIFGHYVLGLSQGSVSEILARPKPWNKLTVRGKEPFHKMKQFLSDEQNILALRSIQGR [E3M], the abundance fitness was -0.101 ± 0.039.

Consider GEHMDTAEIARQVKEQLIKHNIGQRIFGHYVLGLSQGSVSEILARPKPWNKLTVRGKEPFHKMKQFLSDEQNILALRSIQGR [E3H], for which the abundance fitness is -0.027 ± 0.061.

As for GERMDTAEIARQVKEQLIKHNIGQRIFGHYVLGLSQGSVSEILARPKPWNKLTVRGKEPFHKMKQFLSDEQNILALRSIQGR [E3R], the abundance fitness is -0.145 ± 0.025.

As for GETMDTAEIARQVKEQLIKHNIGQRIFGHYVLGLSQGSVSEILARPKPWNKLTVRGKEPFHKMKQFLSDEQNILALRSIQGR [E3T], the abundance fitness was -0.057 ± 0.036.

With GESMDTAEIARQVKEQLIKHNIGQRIFGHYVLGLSQGSVSEILARPKPWNKLTVRGKEPFHKMKQFLSDEQNILALRSIQGR [E3S], the abundance fitness was -0.118 ± 0.032.

Turning to GEAMDTAEIARQVKEQLIKHNIGQRIFGHYVLGLSQGSVSEILARPKPWNKLTVRGKEPFHKMKQFLSDEQNILALRSIQGR [E3A], the abundance fitness was -0.064 ± 0.029.

With GENMDTAEIARQVKEQLIKHNIGQRIFGHYVLGLSQGSVSEILARPKPWNKLTVRGKEPFHKMKQFLSDEQNILALRSIQGR [E3N], the abundance fitness is -0.119 ± 0.073.

As for GEWMDTAEIARQVKEQLIKHNIGQRIFGHYVLGLSQGSVSEILARPKPWNKLTVRGKEPFHKMKQFLSDEQNILALRSIQGR [E3W], the abundance fitness was -0.017 ± 0.031.

GELMDTAEIARQVKEQLIKHNIGQRIFGHYVLGLSQGSVSEILARPKPWNKLTVRGKEPFHKMKQFLSDEQNILALRSIQGR [E3L]: the abundance fitness is -0.107 ± 0.031.

For the variant GECMDTAEIARQVKEQLIKHNIGQRIFGHYVLGLSQGSVSEILARPKPWNKLTVRGKEPFHKMKQFLSDEQNILALRSIQGR [E3C], the abundance fitness was -0.142 ± 0.046.

GEYMDTAEIARQVKEQLIKHNIGQRIFGHYVLGLSQGSVSEILARPKPWNKLTVRGKEPFHKMKQFLSDEQNILALRSIQGR [E3Y]: the abundance fitness is -0.091 ± 0.063.

For GEGMDTAEIARQVKEQLIKHNIGQRIFGHYVLGLSQGSVSEILARPKPWNKLTVRGKEPFHKMKQFLSDEQNILALRSIQGR [E3G], the abundance fitness is -0.155 ± 0.023.

Take GEQMDTAEIARQVKEQLIKHNIGQRIFGHYVLGLSQGSVSEILARPKPWNKLTVRGKEPFHKMKQFLSDEQNILALRSIQGR [E3Q]: the abundance fitness was -0.089 ± 0.04.

In the case of GEKMDTAEIARQVKEQLIKHNIGQRIFGHYVLGLSQGSVSEILARPKPWNKLTVRGKEPFHKMKQFLSDEQNILALRSIQGR [E3K], the abundance fitness is -0.064 ± 0.035.
